{"source": "patent US8688427B2", "about": "“Enzyme catalysts for diels-alder reactions” (University of Washington, priority 2008, dated 2014)", "molecules": {"B1": {"name": "DA_20_10: DA_20_04 with A272N, Q149R, A173C (protein)", "chain": "MEIPVIEPLFTKVTEDIPGATGPVFDKNGDFYIVAPYVEVNGKPAGEILRIDLKTGKKTVICKPEVNGYGGIPIGCQCDRDANQLFVADMRLGLLVVQTDGTFEEIAKKDSEGRRMQGCAYCAFDYEGNLWITAPAGEVAPADFTISLREKFGSIYCFTTDGQMIQVDTAFQCPAGIAVRHMNDGRPYQLIVAEQPTKKLWSYDIKGPAKIENKKVWGHIPGTHKGGAAGMDFDEDNNLLVANWGSSHIEVFGPDGGQPKMRIRCPFEKPANLHFKPQTKTIFVTEHENNAVWKFEWQRNGKKQYCETLKFGIFGSLEHHHHHH", "modifications": "Enzyme catalyst for Diels-Alder reaction", "notes": "DA_20_04 with A272N, Q149R, A173C"}}, "assay_type_in_all_cases": "biochemical", "key": {"[1]": {"test": "Production run and effects of knocking out the catalytic residues", "details": "higher enzyme concentrations: 1 mM diene, 50 mM dienophile, 200 μM protein, PBS, 298K", "procedure": "The reaction was carried out in 1 mM diene, 50 mM dienophile, 200 μM enzyme, in PBS at 298K. The proteins assayed are DA—20—10 (υ), Y121F (▴), Q195E (x), and tela scaffold (*), uncatalyzed (λ).\nTo determine whether the observed activity depends on the designed active site, we investigated the contributions of the designed catalytic residues in DA—20—10 to catalysis. Glutamine 195 was mutated into a glutamate (Q195E) and tyrosine 121 was mutated into a phenylalanine (Y121F). We had originally incorporated a glutamine rather than a glutamate at this position, despite the fact that the carboxylate should make a stronger hydrogen bond with the diene carbamate. This hydrogen bond should increase the energy of the diene HOMO (and thus decrease the energy gap with the dienophile LUMO), and more greatly stabilize the transition state. However, we were concerned that the substantial free energy cost of desolvating the carboxylate would considerably reduce binding affinity for the diene. […] The Y121F mutation decreases catalytic activity by 27-fold, consistent with the removal of a hydrogen bond that contributes to dienophile binding, stabilizes the dienophile LUMO, and is enhanced in the transition state.\nTimepoints were taken and measured as previously described over a period of 60 hours."}, "[2]": {"test": "Kinetic characterization: reaction velocity versus diene and dienophile concentration", "procedure": "(A) Dependence of reaction velocity on diene concentration for different fixed dienophile concentrations. The diene concentration was varied from 3.0 to 0.18 mM with a fixed concentration of 100 mM (⋄), 66 mM (Δ), 44 mM (⋄), 30 mM (◯), 20 mM (◯), or 13 mM (●) dienophile (B) Dependence of reaction velocity on dienophile concentration for different fixed diene concentrations. The dienophile was varied from 100 to 13.0 mM with a fixed concentration of 3 mM (♦), 2 mM (▴), 1.3 mM (∇), 0.9 mM (Δ), 0.6 mM (⋄), 0.4 mM (□), 0.26 mM (◯), or 0.18 mM (●) […]. Reactions were carried out with 20 μM protein in PBS at 298 K.\nThe kinetics of the DA—20—10 catalyzed reaction was characterized by measuring the dependence of the reaction velocity on the concentration of both diene and dienophile. The effective molarity (kcat/kuncat) of DA—20—10 is 100 M, and the rate enhancement (kcat/(kuncat*KM_diene)) in the presence of saturating dienophile and limiting diene is 1.0×10^5. At high substrate concentrations DA—20—10 proceeds for more than 30 turnovers before the enzyme loses activity. At higher enzyme concentrations more than 80% of the diene substrate is converted to product.\nThe errors represent the calculated 95% confidence interval. The parameter a describes the cooperativity of binding between the two substrates: a value greater than one indicates negative cooperativity, whereas a value lower then one indicates positive cooperativity. α could not be determined for DA—20—00. Kinetic parameters for catalytic antibodies 7D4 and 4D5 were taken from (10, 17)."}, "[3]": {"test": "Substrate specificity, LC-MS of product peak area formed per hour", "details": "0.2 mM diene, 10 mM dienophile, 60 μM protein, PBS, 298K", "procedure": "FIG. 19 illustrates the substrate specificity of DA—20—10 and a single mutant of DA—20—10, H287N. Reactions were carried out with 0.2 mM diene 1 (FIG. 1), and 10 mM of one of the six dienophiles depicted in PBS at 298K in the absence or presence of 60 μM DA—20—10 or DA—20—10_H287N. The depicted values in the figure are the mean (bars) and standard deviation (error bars) of four independent measurements of the product peak area (arbitrary units) formed per hour, determined using a liquid chromatography-mass spectroscopy assay.\nTo experimentally determine substrate specificities each dienophile from FIG. 19 was either purchased or synthesized. The dienophiles were assayed in the presence or absence of 60 μM DA—20—10 or the H287N mutant over 30 hours with 10 mM dienophile and 0.2 mM diene at 298K in a PBS solution. A sample of the reaction was taken at four different time points, quenched, and filtered as previously described. To detect product a liquid chromatography-mass spectroscopy assay was used. […] The average area of each detected peak formed per hour was used to determine the relative amount of product formed with and without enzyme.\nBesides stereoselectivity, the level of control over a chemical reaction by a designed enzyme is reflected by its substrate specificity. […] The activity against each of the substrates was measured using a liquid-chromatography mass spectroscopy assay."}}}
{"molecule": "B1", "values": [{"measurement": "diene substrate converted to product", "setting": "[1]", "value": "more than 80%"}, {"measurement": "increase in overall catalytic efficiency over the original design model DA_20_00", "setting": "[2]", "value": "roughly 2200 fold"}, {"measurement": "kcat relative to those of 7D4 and 4D5", "setting": "[2]; DA_20_10 at 298K, antibodies at 310K", "value": 10, "unit": "fold"}, {"measurement": "rate enhancement (kcat/(kuncat*KM_diene)) relative to either antibody", "setting": "[2]; saturating dienophile and limiting diene, versus 7D4 and 4D5", "value": 20, "unit": "fold"}, {"measurement": "effective molarity (kcat/kuncat) relative to either antibody", "setting": "[2]; versus 7D4 and 4D5", "value": 20, "unit": "fold"}, {"measurement": "substrate specificity (in words)", "setting": "[3]", "value": "highly favor the substrate for which it was designed"}]}
